Test results taken from patent publication US20220025025A1 (IBEX BIOSCIENCES, published 2022).

Biological target: T1, filamin-A (human, UniProt P21333 2-2647)
T1 construct: whole, on cells; Endogenous filamin-A of human cell lines; No purified filamin-A was used; also called FLNA; FLNa
Assay: flow cytometry, surface staining of SKNAS (human neuroblastoma) cells, 2 µg primary antibody
Experimental: B411 surface staining on several different cell types was conducted. Cells were plated at a concentration of 0.5-1.0 million cells per well, and incubated overnight. Cells were then lifted from the wells, washed, and resuspended in flow cytometry media with 2 μg of primary antibody for 1 hour on ice. Cells were washed and incubated with the secondary antibody (5 μg/ml) for 30 minutes on ice. Cells were washed again and analyzed by flow cytometry.

T1 sequence (P21333 2-2647): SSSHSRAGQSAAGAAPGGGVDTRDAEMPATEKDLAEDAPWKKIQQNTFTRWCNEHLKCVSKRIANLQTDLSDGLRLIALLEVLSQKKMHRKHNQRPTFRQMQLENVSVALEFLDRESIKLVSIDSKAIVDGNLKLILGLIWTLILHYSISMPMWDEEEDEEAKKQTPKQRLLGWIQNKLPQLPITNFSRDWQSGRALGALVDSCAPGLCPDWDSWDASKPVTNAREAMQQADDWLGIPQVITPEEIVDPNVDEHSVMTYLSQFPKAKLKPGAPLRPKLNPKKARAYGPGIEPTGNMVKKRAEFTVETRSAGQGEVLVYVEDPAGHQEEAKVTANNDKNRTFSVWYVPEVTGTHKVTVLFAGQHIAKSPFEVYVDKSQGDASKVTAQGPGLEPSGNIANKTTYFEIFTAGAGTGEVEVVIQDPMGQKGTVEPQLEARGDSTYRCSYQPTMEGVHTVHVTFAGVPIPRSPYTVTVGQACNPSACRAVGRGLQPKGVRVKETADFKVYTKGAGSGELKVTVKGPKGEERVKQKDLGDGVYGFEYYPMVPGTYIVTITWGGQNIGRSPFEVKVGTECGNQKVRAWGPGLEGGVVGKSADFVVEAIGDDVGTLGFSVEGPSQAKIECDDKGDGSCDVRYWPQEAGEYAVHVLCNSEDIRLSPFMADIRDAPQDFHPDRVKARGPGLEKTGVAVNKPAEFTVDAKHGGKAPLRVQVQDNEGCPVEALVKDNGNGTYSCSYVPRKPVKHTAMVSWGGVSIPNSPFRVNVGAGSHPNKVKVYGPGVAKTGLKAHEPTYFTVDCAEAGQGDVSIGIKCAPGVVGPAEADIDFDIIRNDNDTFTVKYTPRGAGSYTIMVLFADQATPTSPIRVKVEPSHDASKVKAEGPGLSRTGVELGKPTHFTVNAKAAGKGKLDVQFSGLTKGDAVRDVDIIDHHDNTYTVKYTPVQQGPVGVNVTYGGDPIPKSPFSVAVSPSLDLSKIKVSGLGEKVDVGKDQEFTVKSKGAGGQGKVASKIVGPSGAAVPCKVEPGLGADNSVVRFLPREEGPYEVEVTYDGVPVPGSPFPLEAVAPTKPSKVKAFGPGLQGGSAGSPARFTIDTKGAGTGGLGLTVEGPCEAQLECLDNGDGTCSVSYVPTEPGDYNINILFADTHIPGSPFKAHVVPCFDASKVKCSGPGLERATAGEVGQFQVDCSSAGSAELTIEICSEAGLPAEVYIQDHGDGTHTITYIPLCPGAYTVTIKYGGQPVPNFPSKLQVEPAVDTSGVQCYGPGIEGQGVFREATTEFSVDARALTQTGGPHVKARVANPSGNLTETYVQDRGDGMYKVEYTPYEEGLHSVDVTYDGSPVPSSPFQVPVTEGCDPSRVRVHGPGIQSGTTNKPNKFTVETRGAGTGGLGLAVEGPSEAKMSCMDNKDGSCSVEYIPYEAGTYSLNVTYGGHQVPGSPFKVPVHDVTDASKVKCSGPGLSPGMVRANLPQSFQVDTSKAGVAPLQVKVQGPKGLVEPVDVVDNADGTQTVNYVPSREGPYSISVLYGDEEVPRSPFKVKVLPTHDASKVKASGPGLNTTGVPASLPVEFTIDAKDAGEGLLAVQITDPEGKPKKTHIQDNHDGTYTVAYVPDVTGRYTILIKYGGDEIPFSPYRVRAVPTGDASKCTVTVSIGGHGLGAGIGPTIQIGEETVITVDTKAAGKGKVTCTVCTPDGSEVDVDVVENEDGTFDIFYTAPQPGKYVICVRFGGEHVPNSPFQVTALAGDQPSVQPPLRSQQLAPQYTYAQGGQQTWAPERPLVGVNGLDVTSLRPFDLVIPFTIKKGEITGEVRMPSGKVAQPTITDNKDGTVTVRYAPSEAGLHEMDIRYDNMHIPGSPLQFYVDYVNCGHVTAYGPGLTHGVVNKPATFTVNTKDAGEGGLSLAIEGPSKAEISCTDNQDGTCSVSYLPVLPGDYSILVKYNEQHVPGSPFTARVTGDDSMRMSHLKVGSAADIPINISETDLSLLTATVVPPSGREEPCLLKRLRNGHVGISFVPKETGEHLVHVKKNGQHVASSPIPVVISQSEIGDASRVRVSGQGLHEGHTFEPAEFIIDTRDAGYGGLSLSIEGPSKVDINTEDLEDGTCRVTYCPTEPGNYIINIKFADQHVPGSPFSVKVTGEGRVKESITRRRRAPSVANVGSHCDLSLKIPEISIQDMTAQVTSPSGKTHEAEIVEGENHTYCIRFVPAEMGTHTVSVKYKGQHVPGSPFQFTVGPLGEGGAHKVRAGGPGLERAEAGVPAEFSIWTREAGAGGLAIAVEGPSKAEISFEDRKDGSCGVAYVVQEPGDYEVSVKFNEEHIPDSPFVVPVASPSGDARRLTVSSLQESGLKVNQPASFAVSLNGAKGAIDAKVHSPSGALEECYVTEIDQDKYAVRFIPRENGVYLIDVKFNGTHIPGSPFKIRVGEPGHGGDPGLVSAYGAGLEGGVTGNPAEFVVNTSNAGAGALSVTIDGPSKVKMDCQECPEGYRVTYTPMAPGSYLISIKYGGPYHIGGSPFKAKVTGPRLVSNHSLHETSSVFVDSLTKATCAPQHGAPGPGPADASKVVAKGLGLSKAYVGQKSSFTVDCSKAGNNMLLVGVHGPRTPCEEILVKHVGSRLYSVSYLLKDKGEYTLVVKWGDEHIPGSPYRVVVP

binding result: binds
B1: anti-filamin-A antibody B411 (antibody, human IgG1, kappa, V domains shown)
VH: EVKLVESGGGLVQPGGSLKLSCAASGFTFSSYTMSWVRQTPEKRLEWVAYISNGGGSTYYPDTVKGRFTISRDNAKNTLYLQMSSLKSEDTAMYYCASDGIIRPFAYWGQGTLVTVSA
VL: DIVMTQSHKFMSTSVGDRVSITCKASQDVSLDVAWYQQKPGQSPKLLIYSASHRYTGVPDRFTGSGSGTDFTFTISGVQAEDLAVYFCQQHYSTPLTFGAGTKLELKR
notes: also called B4111
